The record followed here is US20250270304A1 (PHENOMIC AI, published 2025).

In assay [1] the target is T1, Inhibin A (Homo sapiens (Human), UniProt P05111 233-366; P08476 311-426).
T1 sequence 1: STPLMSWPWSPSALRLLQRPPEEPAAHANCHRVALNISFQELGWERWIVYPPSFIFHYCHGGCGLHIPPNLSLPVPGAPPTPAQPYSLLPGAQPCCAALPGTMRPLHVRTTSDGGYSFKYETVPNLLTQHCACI
T1 sequence 2: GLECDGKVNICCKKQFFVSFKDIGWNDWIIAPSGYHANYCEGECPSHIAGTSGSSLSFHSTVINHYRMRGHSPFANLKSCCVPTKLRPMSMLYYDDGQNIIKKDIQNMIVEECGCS
Kind of assay: ELISA, coated antigen, OD450. A general note: In an ELISA, binding on a coated surface is turned into a signal by an enzyme label.

For assay [2], the target named is T2, Latent Activin A (human, UniProt P08476 21-426, limits assumed).
T2 construct: also called INHBA latent
T2 sequence: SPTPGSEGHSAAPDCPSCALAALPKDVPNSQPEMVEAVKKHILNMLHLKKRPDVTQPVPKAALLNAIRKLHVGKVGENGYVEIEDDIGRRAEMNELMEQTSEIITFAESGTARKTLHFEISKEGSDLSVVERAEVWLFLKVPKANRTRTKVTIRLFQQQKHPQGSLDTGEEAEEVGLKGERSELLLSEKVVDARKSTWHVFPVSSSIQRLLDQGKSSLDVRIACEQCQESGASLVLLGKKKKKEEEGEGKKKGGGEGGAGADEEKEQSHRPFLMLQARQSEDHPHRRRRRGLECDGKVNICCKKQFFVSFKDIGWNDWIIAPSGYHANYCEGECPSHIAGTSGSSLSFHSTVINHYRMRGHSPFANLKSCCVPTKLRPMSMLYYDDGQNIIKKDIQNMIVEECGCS
The assay can be described thus: ELISA, coated antigen, OD450.

In assay [3] the target is T3, Mature Activin A (human, UniProt P08476 311-426).
T3 construct: also called active Activin A; INHBA mature
T3 sequence: T1 sequence 2
Kind of assay: ELISA, coated antigen, OD450.

The target of assay [4] is T4, Activin B (Homo sapiens (Human), UniProt P09529 293-407).
T4 construct: also called Mature Activin B; mature Activin B
T4 sequence: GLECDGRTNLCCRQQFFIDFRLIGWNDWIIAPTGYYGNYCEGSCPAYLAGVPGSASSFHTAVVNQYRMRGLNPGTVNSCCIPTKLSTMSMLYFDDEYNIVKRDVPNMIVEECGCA
Kind of assay: ELISA, coated antigen, OD450; secondary screen, single OD 450 reading as fold over negative control; below the 1.40-fold cut-off, so not a binder. On the procedure: (§1) Antibodies were re-expressed in 40 mL cultures of Expi293 cells and purified using protein G magnetic sepharose beads (Cytiva, Marlborough, MA) to provide larger quantities for secondary screening. Secondary screening included dose responses in both functional assays described above (SMAD nuclear localization and fibroblast activations assays) as well as in binding assays to the same antigens listed in Table 3. Plates were coated with 25 μL of 3 μg/mL antigen in 384-well Maxisorp plates overnight at 4° C. with agitation. The next day, the samples in the plates were blocked with 70 μL blocking buffer (PBS+1% BSA+0.1% Tween-20) for 2 hours at room temperature. Plates were then washed three times with 100 μL of wash buffer (PBS+0.1% Tween-20). Primary antibodies in Expi293 expression medium were diluted 1:3 in blocking buffer, 25 μL added per well, and the plates were incubated for an hour at room temperature with agitation. Plates were then washed three times and 25 μL of secondary antibody (goat anti-Human IgG, HRP conjugated; Jackson Immunoresearch) diluted 1:5000 in blocking buffer was added for 30 minutes at room temperature. The wells in the plates were washed six times with wash buffer and TMB substrate was added followed by 1 M H3PO4.

The target of assay [5] is T2, Latent Activin A. The assay can be described thus: ELISA dose-response, coated antigen. On the procedure: as §1
Assay [6] has as its target T3, Mature Activin A. The assay can be described thus: ELISA dose-response, coated antigen. The method, then:
as §1

The target of another assay is T5, Inhibin B (Homo sapiens (Human), UniProt P05111 233-366; P09529 293-407).
T5 sequence 1: T1 sequence 1
T5 sequence 2: T4 sequence
The assay can be described thus: the assays described above.

Assay [7] has as its target T1, Inhibin A. Kind of assay: ELISA dose-response, coated antigen (row 'Inhibin'). The method, then:
as §1

For assay [8], the target named is T4, Activin B. Kind of assay: ELISA, coated antigen, OD450; secondary screen, single OD 450 reading as fold over negative control; below the 1.40-fold cut-off. The method, then:
as §1

Assay [9] addresses T4, Activin B. Kind of assay: ELISA dose-response, coated antigen; dose-response ELISA, 1:3 dilutions from 133 nM; weak binding within the tested range. The method, then: as §1
Assay [10] has as its target T1, Inhibin A. Kind of assay: ELISA, coated antigen, OD450; negative control antibody. The method, then:
as §1

In assay [11] the target is T2, Latent Activin A. The assay is described as above. The method, then: as §1
For assay [12], the target named is T4, Activin B. Described as above. The method, then:
as §1

For assay [13], the target named is T3, Mature Activin A. The assay is described as above. On the procedure:
as §1

B1: AB342 (antibody, IgG1, V domains shown)
VH: EVQLVESGGGLVQPGGSLRLSCAASGFDFGEHWMSWVRQAPGKGLELVASIKGDASDTYYPDSVKGRFTISRDNAKNSLYLQMNSLRAEDTAVYYCVKDLSKQWLGIDYWGQGTLVTVSS
VL: DIVMTQSPLSLPVTPGEPASISCRSSQSLLHSNEKNYLHWYLQKPGQSPQLLIYDASKRASGVPDRFSGSGSGTDFTLKISRVEAEDVGVYYCVQDLHTPFTFGGGTKVEIK
For the molecule B1, the “fold-change of OD 450 over negative control (BSA)” value (“fold-change” for short) with Inhibin A [1] came out at 0.36 fold; in the assay with Latent Activin A [2] it was 7 fold; with Mature Activin A [3], 7.81 fold; with Activin B [4], 0.43 fold. In addition, the results for the EC50 with Latent Activin A [5] and with Mature Activin A [6] were 48.6 nM and 4.89 nM, respectively.

B2: Control 1 (antibody, V domains shown)
VH: QVQLVQSGAEVKKPGASVKVSCKASGYTFTSYGLSWVRQAPGQGLEWMGWIIPYNGNTNSAQKLQGRVTMTTDTSTSTAYMELRSLRSDDTAVYFCARDRDYGVNYDAFDIWGQGTMVTVSS
VL: not shown
notes: also called AMGA1; Amga1
As for B2, the “fold-change” value came to 11.7 fold with Inhibin A [1], 18.7 fold in the assay with Latent Activin A [2], 16.3 fold with Mature Activin A [3] and 0.57 fold in the assay with Activin B [8]. Besides, the binding result in the assay with Inhibin B is recorded as “no binding”. Also, the EC50 with Inhibin A [7] was found to be 0.02 nM; in the assay with Latent Activin A [5], 0.03 nM; with Mature Activin A [6], 0.03 nM.

B3: Control 2 (antibody, human IgG4 S228P, kappa, V domains shown)
VH: QVQLQESGPGLVKPSETLSLTCTVSGGSFSSHFWSWIRQPPGKGLEWIGYILYTGGTSFNPSLKSRVSMSVGTSKNQFSLKLSSVTAADTAVYYCARARSGITFTGIIVPGSFDIWGQGTMVTVSS
VL: not shown
notes: also called garetosmab; Garetosmab
With B3, the “fold-change” value with Inhibin A [1] is 15.9 fold; with Latent Activin A [2] it was 21.6 fold; in the assay with Mature Activin A [3], 21 fold; in the assay with Activin B [8], 0.71 fold. For the same molecule, the EC50 in the assay with Activin B [9] came out at 11.2 nM; with Inhibin A [7], 2.08 nM; with Latent Activin A [5], 0.04 nM; in the assay with Mature Activin A [6] it was 0.07 nM.

B4: Control 3 (antibody, human IgG1, kappa, V domains shown)
VH: QVTLRESGPALVKPTQTLTLTCTFSGFSLSTSGMSVGWIRQPPGKALEWLADIWWDDKKDYNPSLKSRLTISKDTSKNQVVLKVTNMDPADTATYYCARSMITNWYFDVWGAGTTVTVSS
VL: DIQMTQSPSTLSASVGDRVTITCKCQLSVGYMHWYQQKPGKAPKLLIYDTSKLASGVPSRFSGSGSGTEFTLTISSLQPDDFATYYCFQGSGYPFTFGGGTKLEIKR
notes: Negative control antibody; also called palivizumab
Take B4: the binding result in the assay with Inhibin A [10], in the assay with Latent Activin A [11], with Activin B [12] and in the assay with Mature Activin A [13] was “no binding” in each case.

What is called EC50 is the midpoint of the concentration-response curve. A higher EC50 goes with a less potent agent.
